Literature values in paper PMC4620043.
Read-outs that look alike come from different tables or passages of the source.

Columns and labels:
fibrin (Homo sapiens) [1] = target: fibrin (Homo sapiens) (UniProt P02671)
fibrin (Homo sapiens) [2] = target: fibrin (Homo sapiens) (UniProt P02671); remark: listed apart in the source

Row | Kd (fibrin (Homo sapiens) [1]) [µM] | Kd (fibrin (Homo sapiens) [2]) [µM] | Substance
1 | 6 | – | CREKA peptide
2 | – | 0.008 | GPRPP peptide
